Test results taken from IntAct's records for PubMed 31515488.

B1: Keratin, type I cytoskeletal 40 (Homo sapiens), Q6A162 (parent)
chain: MTSDCSSTHCSPESCGTASGCAPASSCSVETACLPGTCATSRCQTPSFLSRSRGLTGCLLPCYFTGSCNSPCLVGNCAWCEDGVFTSNEKETMQFLNDRLASYLEKVRSLEETNAELESRIQEQCEQDIPMVCPDYQRYFNTIEDLQQKILCTKAENSRLAVQLDNCKLATDDFKSKYESELSLRQLLEADISSLHGILEELTLCKSDLEAHVESLKEDLLCLKKNHEEEVNLLREQLGDRLSVELDTAPTLDLNRVLDEMRCQCETVLANNRREAEEWLAVQTEELNQQQLSSAEQLQGCQMEILELKRTASALEIELQAQQSLTESLECTVAETEAQYSSQLAQIQCLIDNLENQLAEIRCDLERQNQEYQVLLDVKARLEGEINTYWGLLDSEDSRLSCSPCSTTCTSSNTCEPCSAYVICTVENCCL

Assays:
wt1_human WT1, P19544 = variants of: B1; settings: with wt1_human WT1, P19544
k2c4_human KRT4, P19013 = variants of: B1; settings: with k2c4_human KRT4, P19013
mta1_human MTA1, Q13330 = variants of: B1; settings: with mta1_human MTA1, Q13330
prs8_human PSMC5, P62195 = variants of: B1; settings: with prs8_human PSMC5, P62195
[1] = variants of: B1; settings: with snai1_human SNAI1, O95863

Measured: effect of a mutation on the interaction

prs8_human PSMC5, P62195, sequence (P62195 whole entry): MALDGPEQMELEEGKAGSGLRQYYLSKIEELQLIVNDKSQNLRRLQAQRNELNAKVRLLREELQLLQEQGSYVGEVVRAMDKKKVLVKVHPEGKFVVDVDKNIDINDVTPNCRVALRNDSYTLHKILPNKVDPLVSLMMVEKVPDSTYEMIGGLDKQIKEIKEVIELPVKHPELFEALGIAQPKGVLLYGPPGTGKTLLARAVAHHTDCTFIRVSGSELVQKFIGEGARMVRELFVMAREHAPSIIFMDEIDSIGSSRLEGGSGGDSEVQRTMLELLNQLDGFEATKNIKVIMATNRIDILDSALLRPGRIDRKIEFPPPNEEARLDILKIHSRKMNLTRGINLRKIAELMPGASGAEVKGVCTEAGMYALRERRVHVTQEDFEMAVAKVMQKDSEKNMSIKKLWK
wt1_human WT1, P19544, sequence (P19544 whole entry): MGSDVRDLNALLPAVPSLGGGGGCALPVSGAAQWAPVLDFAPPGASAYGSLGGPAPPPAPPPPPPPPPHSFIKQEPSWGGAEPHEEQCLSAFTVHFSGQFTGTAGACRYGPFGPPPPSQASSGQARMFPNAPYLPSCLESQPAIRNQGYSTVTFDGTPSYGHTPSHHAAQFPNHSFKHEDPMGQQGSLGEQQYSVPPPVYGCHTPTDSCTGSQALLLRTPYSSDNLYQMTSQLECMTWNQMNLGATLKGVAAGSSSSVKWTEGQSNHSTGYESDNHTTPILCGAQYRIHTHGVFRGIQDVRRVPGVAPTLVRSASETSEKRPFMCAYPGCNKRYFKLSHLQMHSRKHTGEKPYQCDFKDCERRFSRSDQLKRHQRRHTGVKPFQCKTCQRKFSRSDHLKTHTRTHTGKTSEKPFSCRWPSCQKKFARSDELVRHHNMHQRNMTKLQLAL
k2c4_human KRT4, P19013, sequence (P19013 whole entry): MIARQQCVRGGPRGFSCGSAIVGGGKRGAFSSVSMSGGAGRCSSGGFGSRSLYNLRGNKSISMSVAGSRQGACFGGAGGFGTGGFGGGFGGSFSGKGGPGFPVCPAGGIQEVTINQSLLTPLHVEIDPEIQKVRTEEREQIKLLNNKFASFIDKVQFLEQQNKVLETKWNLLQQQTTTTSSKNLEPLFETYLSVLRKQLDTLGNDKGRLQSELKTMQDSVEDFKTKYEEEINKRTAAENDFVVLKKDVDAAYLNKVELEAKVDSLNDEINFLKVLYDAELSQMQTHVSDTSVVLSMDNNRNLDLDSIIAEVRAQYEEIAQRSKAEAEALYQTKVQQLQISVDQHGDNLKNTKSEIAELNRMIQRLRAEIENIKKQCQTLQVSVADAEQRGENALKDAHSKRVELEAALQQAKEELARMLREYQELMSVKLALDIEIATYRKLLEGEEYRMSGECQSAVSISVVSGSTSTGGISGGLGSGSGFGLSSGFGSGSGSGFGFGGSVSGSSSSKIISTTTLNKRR
snai1_human SNAI1, O95863, sequence (O95863 whole entry): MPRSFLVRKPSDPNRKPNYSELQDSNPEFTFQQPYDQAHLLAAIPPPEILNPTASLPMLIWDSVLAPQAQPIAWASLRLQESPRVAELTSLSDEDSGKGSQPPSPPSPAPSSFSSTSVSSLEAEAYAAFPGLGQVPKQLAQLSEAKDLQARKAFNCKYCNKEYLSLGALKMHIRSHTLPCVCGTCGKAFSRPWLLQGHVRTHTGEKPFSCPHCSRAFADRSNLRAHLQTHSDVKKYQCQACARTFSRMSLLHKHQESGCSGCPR
mta1_human MTA1, Q13330, sequence (Q13330 whole entry): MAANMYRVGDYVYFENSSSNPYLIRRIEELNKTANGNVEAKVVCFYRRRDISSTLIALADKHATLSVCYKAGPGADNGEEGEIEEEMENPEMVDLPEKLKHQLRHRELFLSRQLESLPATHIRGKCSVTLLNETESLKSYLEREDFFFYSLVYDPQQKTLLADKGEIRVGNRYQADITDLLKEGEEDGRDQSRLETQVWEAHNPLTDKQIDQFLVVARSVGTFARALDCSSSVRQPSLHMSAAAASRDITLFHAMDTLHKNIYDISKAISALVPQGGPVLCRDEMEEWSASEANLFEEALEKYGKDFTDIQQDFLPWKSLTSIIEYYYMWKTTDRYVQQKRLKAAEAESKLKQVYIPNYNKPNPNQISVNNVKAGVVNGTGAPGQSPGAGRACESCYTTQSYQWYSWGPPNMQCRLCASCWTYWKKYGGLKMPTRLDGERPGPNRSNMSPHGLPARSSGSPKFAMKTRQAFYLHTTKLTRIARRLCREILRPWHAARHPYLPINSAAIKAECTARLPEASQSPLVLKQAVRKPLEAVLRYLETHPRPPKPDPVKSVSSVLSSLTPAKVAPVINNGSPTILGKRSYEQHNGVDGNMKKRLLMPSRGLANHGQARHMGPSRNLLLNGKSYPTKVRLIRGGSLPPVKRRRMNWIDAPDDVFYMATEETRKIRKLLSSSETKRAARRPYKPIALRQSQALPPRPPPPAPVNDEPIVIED

MTSDCSSTHCSPESCGTASGCAPASSCSVETACLPGTCATSRCQTPSFLSRSRGLTGCLLPCYFTGSCNSPCLVGNCAWCEDGVFTSNEKETMQFLNDRLASYLEKVRSLEETNTELESRIQEQCEQDIPMVCPDYQRYFNTIEDLQQKILCTKAENSRLAVQLDNCKLATDDFKSKYESELSLRQLLEADISSLHGILEELTLCKSDLEAHVESLKEDLLCLKKNHEEEVNLLREQLGDRLSVELDTAPTLDLNRVLDEMRCQCETVLANNRREAEEWLAVQTEELNQQQLSSAEQLQGCQMEILELKRTASALEIELQAQQSLTESLECTVAETEAQYSSQLAQIQCLIDNLENQLAEIRCDLERQNQEYQVLLDVKARLEGEINTYWGLLDSEDSRLSCSPCSTTCTSSNTCEPCSAYVICTVENCCL [A115T]
with no effect: all assays above

MTSDCSSTHCSPESCGTASGCAPASSCSVETACLPGTCATSRCQTPSFLSRSRGLTGCLLPCYFTGSCNSPCLVGNCAWCEDGVFTSNEKETMQFLNDRLASYLEKVRSLEETNAELESRIQEQCEQDIPMVCPDYQRYFNTIEDLQQKILCMKAENSRLAVQLDNCKLATDDFKSKYESELSLRQLLEADISSLHGILEELTLCKSDLEAHVESLKEDLLCLKKNHEEEVNLLREQLGDRLSVELDTAPTLDLNRVLDEMRCQCETVLANNRREAEEWLAVQTEELNQQQLSSAEQLQGCQMEILELKRTASALEIELQAQQSLTESLECTVAETEAQYSSQLAQIQCLIDNLENQLAEIRCDLERQNQEYQVLLDVKARLEGEINTYWGLLDSEDSRLSCSPCSTTCTSSNTCEPCSAYVICTVENCCL [T153M]
with no effect: all assays above

MTSDCSSTHCSPESCGTASGCAPASSCSVETACLPGTCATSRCQTPSFLSRSRGLTGCLLPCYFTGSCNSPCLVGNCAWCEDGVFTSNEKETMQFLNDRLASYLEKVRSLEETNAELESRIQEQCEQDIPMVCPDYQRYFNTIEDLQQKILCTKAENSRLAVQLDNCKLATDDFKSKYESELSLRQLLEADISSLHGILEELTLCKSDLEAHVESLKEDLLCLKKNHEEEVNLLHEQLGDRLSVELDTAPTLDLNRVLDEMRCQCETVLANNRREAEEWLAVQTEELNQQQLSSAEQLQGCQMEILELKRTASALEIELQAQQSLTESLECTVAETEAQYSSQLAQIQCLIDNLENQLAEIRCDLERQNQEYQVLLDVKARLEGEINTYWGLLDSEDSRLSCSPCSTTCTSSNTCEPCSAYVICTVENCCL [R235H]
with no effect: all assays above
